Assay results reported in a protein production outcome set (Wang et al. 2014).

Experiment: label from the status in PepcDB records

Sequence | protein production
MSFFKLKENNTSFKTEVIAGLTTFLAMVYIIPVNSSIVGNTGMPIEALITATALITIVASAFNAFFANTPVAMSVGMGLNAYFTFAVCLGQNIAWQSALGAVFISSIIFLILSFTHFRLWVIRNIPKDLRLAICAGIGCFIAFLGLSQMGVIMHNKDTLVSIGNFKSPHVLFGIFTLALIIFFWAIKLLGAFILGVLASSIIAWIFHLDNASFPVQIFSWPNFSMENGLGAIFLQLDIKSALNITMIPIILTFFITQLFDSIGTITGVGERGKIFDDPKNGEKKLSKTLMADATGSALGAMTGTSTVTAFVESTTGVESGGRTGLTALVVAICFAFTLFLLPLFKAIPANAIYPVLVMVGILMFMEVKNIDFKDSAIAVASFFTIIMMPFTYSITTGFAFGFLSYLLVRIFKREWDKINLGIIVLSLLSLGNFLLMALQ | failed
MSWENPGPPKRADARRNYDRIIEAAAAEVARHGADASLEEIARRAGVGSATLHRHFPSRWGLLQAVFQERVAQLCDEARSLAAEHPPATALTRWLTSLAVFGAVTRGAARSLLPATGTNTGAALDSRCEQLLTEAGADLLARAQEDGTVRDDVTALELLSLANAVSLAAEHTPDAAHHATRLMGIALGGLGAPGPRPQG | not failed
TRMAPVIMVPGSSASQNRFDSLITELGKETPKKHSVLKLTVQTDGTIKYSGSIAANDNEPFIVIGFANNRDGKANIDKQAVWLNTAFKALVKTYHFNHFYALGHSNGGLIWTLFLERYLKESPKVHIDRLMTIASPYNMESTSTTAKTSMFKELYRYRTGLPESLTVYSIAGTENYTSDGTVPYNSVNYGKYIFQDQVKHFTEITVTGANTAHSDLPQNKQIVSLIRQYLLAETMPDKVRQKNAQRVQN | not failed
MLDNKDIATPSRTRALLDKYGFNFKKSLGQNFLIDVNIINNIIDASDIDAQTGVIEIGPGMGSLTEQLARHAKRVLAFEIDQRLIPVLNDTLSPYDNVTVINEDILKANIKEAVENHLQDCEKIMVVANLPYYITTPILLNLMQQDIPIDGYVVMMQKEVGERLNAEVGSKAYGSLSIVVQYYTETSKVLTVPKSVFMPPPNVDSIVVKLMQRTEPLVTVDNEEAFFKLAKAAFAQRRKTINNNYQNYFKDGKQHKEVILQWLEQAGIDPRRRGETLSIQDFAKLYEEKKKFPQLEN | failed
MKKFLFILSLFCVLSYAYELKLNANITALKLDKQNLYIGTDKGEILQYNIKDKSLKELLSLPKIKNYYGDDFAKIYNIDIFKHTLLILSEGDFGAKNLSFYKENLQIKKLEENSIIKAFFINENTYLLISIGSEIELIDKSLKNIKKFNFSHSSLNDAVLNEDKSRLIAGFESGEVELFDLKNWKMLKNYDKMHKDNIYQVDFKNNVILSCGTDRRIGVVKNEEQNFLQKDFLIYTCALSPSGEFAVYSDNEAGVSEVFSTSDFKPVKTFNNENLMSEFIIFLNNKDFIVSGFGDSIMFRSIDE | failed
MGSSHHHHHHENLYFQGTSVMITENQSVNAKGKYEKMNRLYDTNKLHQYYSGPSYELTNVSGQSQGYYDSNVLLFNQQNQKFQVFLLGKDENKYKEKTHGLDVFAVPELVDLDGRIFSVSGVTKKNVKSIFESLRTPNLLVKKIDDKDGFSIDEFFFIQKEEVSLKELDFKIRKLLIKKYKLYEGSADKGRIVINMKDENKYEIDLSDKLDFERMADVINSEQIKNIEVNLK | not failed
MLNQFPKLRLTPFTTGIVAIFLFSLVIRFWNLGQFNQLVFDEVYYAKFASDYWLGNDFFPSHPPLSHYLIALAMGLGQVFPVNPEQVNDLTGAVRSTWSYRWLNALTGATIPLLLGAIAYLLTQRRLVTLLTMGLVALDGLFLVESRYALNNIYLVFFGLLGQALVLWHLRQEKLWQLILGGISLACAGSVKWNGFAFLLGVYLLWAIAWVKPFFNQGWTKGERQANSLQLLDRDGENNQGFLSRWLIISPLKFAIWLVLVPVITYSVIWIPHLLMNGEYASLEGFWRIQRETWQYHRRVGNSPDIHPYCSPWYSWLLMARPIAYFYQKSGQFGLINDVHAMANPILLWFSTGAMALLTGTVIWQKIRQFSSQTINAPLRGITLYIEVNYAVNLLPWLGISRCTFFYHYLPAYAFSILALALILETLLDSPRHSHNVIAWAVLTLVAIAFWYWLPVFLGLPLTPRGFALRMLFPSWI | failed
MTDWIQNLMDSMGYLGILLLMVLENVFPPIPSELIMPSAGFAAARGDMSLGMVVLMGTLGSVIGTLPLYYIGRAFGEDKLVAWADKHGKWLTLSGKDIKKADAWFDRYGAGAVLFGRMVPGIRSLLSLPAGMSEMPLPKFLIYSAIGSALWSAALAYAGYALGENYDRVEQYVAPVSKVIVGLLVIGAAAWFIRRKREQGSRTGG | failed
